Read-outs that look alike come from different tables or passages of the source.
Columns and labels:
[1] = Pharmacokinetic study: variability in plasma concentration (% CV) after p.o. administration of SNAC tablet to humans; format: in vivo; settings: for % CV AUC / % CV Cmax: p.o. tablet with 300 mg SNAC
Protocol: The variability in plasma concentration was determined as % CV for both Cmax and AUC.

[2] = dog, in vivo
Protocol: The other monoclonal antibody, specific for an N-terminal epitope, was biotinylated. […] Illumination of the complex releases singlet oxygen atoms from the donor beads which channels into the acceptor beads and trigger chemiluminescence which was measured in the EnVision plate reader.
The LC-MS system consisted of Waters Acquity UPLC system (Waters) consisting of an autosampler (Model Acq-SM), pump (Model Acq-BSM), column oven (Model Acq-SM), detector (Model Acq-TUV) and LTQ Orbitrap XL (Thermo Fisher). RP-HPLC separation was achieved using a linear gradient of acetonitrile in 0.1% formic acid using CSH C18 column (Waters, 1×150 mm) with a flow rate of 0.1 ml/min at 45° C.
A pharmacokinetic study was carried out to determine plasma half-life of the GLP-1 peptides after p.o. administration to Beagle dogs.
Dogs were administered p.o. GLP-1 peptide 1 in a SNAC formulation. Blood samples were drawn at predefined time points after dosing, and samples were analysed for concentration of the GLP-1 peptide. […] The variability in plasma concentration of the GLP-1 peptide was determined as % CV for AUC. […]
Blood samples were drawn at predefined time points after dosing, and samples were analysed for concentration of the GLP-1 peptide. […] The variability in plasma concentration of the GLP-1 peptide was determined as % CV for AUC. […]

[3] = 10 mg, single dose, healthy subjects
[4] = 10 mg/day for 70 days, healthy subjects, Day 70
[5] = 20 mg/day for 70 days, healthy subjects, Day 69
[6] = 40 mg/day for 70 days, healthy subjects, Day 69
[7] = 40 mg/day for 70 days, subjects with type 2 diabetes, Day 69

N-epsilon26-[2-(2-{2-[2-(2-{2-[(S)-4-Carboxy-4-(17-carboxyheptadecanoyl-amino)butyrylamino]ethoxy}ethoxy)acetylamino]ethoxy}ethoxy)acetyl][Aib8,Arg34]GLP-1-(7-37) [GLP-1 peptide 1]
variability in plasma exposure, daily dosing compared to single dose ([1]; humans, 10, 20 or 40 mg daily for 70 days vs single dose of 10 mg): significantly reduced | % CV AUC [1, 3]: 105% | % CV Cmax [1, 3]: 113% | % CV AUC [1, 4]: 73% (Day 70) | % CV Cmax [1, 4]: 74% (Day 70) | % CV AUC [1, 5]: 67% (Day 69) | % CV Cmax [1, 5]: 62% (Day 69) | % CV AUC [1, 6]: 78% (Day 69) | % CV Cmax [1, 6]: 80% (Day 69) | % CV AUC [1, 7]: 55% (Day 69) | % CV Cmax [1, 7]: 54% (Day 69) | variability in plasma exposure, daily dosing compared to single dose [2]: significantly reduced | % CV AUC ([2]; po, 300 mg): 67%

Reference: patent US10278923B2, “Oral dosing of GLP-1 compounds” (Novo Nordisk A/S, priority 2013, dated 2019)
